# In patent US20250215072A1 (published 2025):
# Substitutions are numbered along the chain they refer to. Like-named read-outs stand apart in the source and are kept apart here.
# B1: Ab20 (antibody, IgG4, V domains shown)
# VH: EVQLLESGGGLVQPGGSLRLSCAASGFTFSAYAMTWVRQAPGKGLEWVSAISGSGGVTYYADSVKGRFTISRDNSKNTLYLQMNSLRAEDTAVYYCARVSSGHWDYDYWGQGTLVTVSS
# VL: DIQLTQSPSSLSASVGDRVTITCRASQSISSYLNWYQQKPGKAPKLLIYAASNLQSGVPSRFSGSGSGTDFTLTISSLQPEDFATYYCQQTYTVPLTFGGGTKVEIK
# B2: Ab2 (antibody, V domains shown)
# VH: B1 VH with S30A, A31D, G56A, V57A, Y60F, Y106F
# VL: DIQLTQSPSSLSASVGDRVTITCRASQSISSYLNWYQQKPGKAPKLLIYAASNLQSGVPSRFSGSGSGTDFTLTISSLQPEDFATYYCQQTYTVPLTFGGGTKVEIKR
# B3: Ab35 (antibody, IgG4, V domains shown)
# VH: B1 VH with S30R, A31N, T35S, A50S, V57A, G102Y, H103L, Y106F
# VL: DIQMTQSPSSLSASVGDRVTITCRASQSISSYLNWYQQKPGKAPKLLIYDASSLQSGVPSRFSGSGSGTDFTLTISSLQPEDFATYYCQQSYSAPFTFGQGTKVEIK
# B4: Ab6 (antibody, V domains shown)
# VH: EVQLVESGGGLVQPGGSLRLSCTASGFTFSSFSMDWVRQAPGKGLEWVSYISPSADTIYYADSVKGRFTISRDNAKNTLYLQMNSLRAEDTAVYYCARGVLDYGDMLMPWGQGTLVTVSS
# VL: DIQMTQSPSSLSASVGDRVTITCQASQDITNYLNWYQQKPGKAPKLLIYDASNLETGVPSRFSGSGSGTDFTFTISSLQPEDIATYYCQQADNHPPWTFGGGTKVEIKR
# B5: Ab4 (antibody, IgG4, V domains shown)
# VH: B4 VH with T23A, F32Y, D35N, P53S, A55S, D56S, T78S, M108D
# VL: DIQMTQSPSSLSASVGDRVTITCQASQDITNYLNWYQQKPGKAPKLLIYDASNLETGVPSRFSGSGSGTDFTFTISSLQPEDIATYYCQQADNHPPWTFGGGTKVEIK
# notes: parent of Ab6
# Legend:
# [1] = target: T1, human GARP-proTGFβ1 complex (human, UniProt P01137 30-390; Q14392 20-627); test: BLI (Octet)
# T1 construct: also called hGARP-proTGFβ1; hGARP
# T1 sequence (P01137 30-390, chain 1 of 2): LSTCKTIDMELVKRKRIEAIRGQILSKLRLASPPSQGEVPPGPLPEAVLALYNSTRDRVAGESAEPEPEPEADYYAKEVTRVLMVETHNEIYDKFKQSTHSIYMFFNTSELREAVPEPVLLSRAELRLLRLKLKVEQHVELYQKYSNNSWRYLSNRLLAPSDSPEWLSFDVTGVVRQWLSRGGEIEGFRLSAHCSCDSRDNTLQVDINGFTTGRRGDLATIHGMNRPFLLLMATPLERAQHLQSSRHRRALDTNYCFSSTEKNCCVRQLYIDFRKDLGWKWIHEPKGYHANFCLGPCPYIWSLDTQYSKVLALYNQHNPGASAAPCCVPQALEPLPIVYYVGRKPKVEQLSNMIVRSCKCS
# T1 sequence (Q14392 20-627, chain 2 of 2): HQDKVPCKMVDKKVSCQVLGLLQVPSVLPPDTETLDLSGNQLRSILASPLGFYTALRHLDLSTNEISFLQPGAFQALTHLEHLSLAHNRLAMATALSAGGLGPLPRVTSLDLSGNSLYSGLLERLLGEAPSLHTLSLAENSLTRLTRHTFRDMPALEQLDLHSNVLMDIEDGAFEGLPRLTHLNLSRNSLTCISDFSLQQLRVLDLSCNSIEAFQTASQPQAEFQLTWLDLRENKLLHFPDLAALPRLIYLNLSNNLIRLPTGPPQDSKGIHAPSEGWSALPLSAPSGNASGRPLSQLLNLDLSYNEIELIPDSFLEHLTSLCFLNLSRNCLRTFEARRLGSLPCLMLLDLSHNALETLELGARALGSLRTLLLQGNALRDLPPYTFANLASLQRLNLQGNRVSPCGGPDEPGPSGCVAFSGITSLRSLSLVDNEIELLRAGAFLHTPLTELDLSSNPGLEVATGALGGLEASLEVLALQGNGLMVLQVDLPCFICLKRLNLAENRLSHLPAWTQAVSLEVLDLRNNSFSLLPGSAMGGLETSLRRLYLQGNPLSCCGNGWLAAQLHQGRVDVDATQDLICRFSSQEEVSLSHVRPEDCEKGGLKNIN
# Description: (§1) The affinity of anti-TGFβ1 antibodies was measured by Octet@ assay on human proTGFβ1 cells, while activity was measured by CAGA12 reporter cells testing human proTGFβ1 inhibition.
# [2] = target: T2, human LRRC33-proTGFβ1 complex (human, UniProt P01137 30-390; Q86YC3 19-650); test: BLI (Octet)
# T2 construct: also called hLRRC33-proTGFβ1; hLRRC33
# T2 sequence (P01137 30-390 limits assumed, chain 1 of 2): as the sequence (P01137 30-390, chain 1 of 2) above
# T2 sequence (Q86YC3 other isoform, or with tags, fused parts or gaps limits assumed, chain 2 of 2): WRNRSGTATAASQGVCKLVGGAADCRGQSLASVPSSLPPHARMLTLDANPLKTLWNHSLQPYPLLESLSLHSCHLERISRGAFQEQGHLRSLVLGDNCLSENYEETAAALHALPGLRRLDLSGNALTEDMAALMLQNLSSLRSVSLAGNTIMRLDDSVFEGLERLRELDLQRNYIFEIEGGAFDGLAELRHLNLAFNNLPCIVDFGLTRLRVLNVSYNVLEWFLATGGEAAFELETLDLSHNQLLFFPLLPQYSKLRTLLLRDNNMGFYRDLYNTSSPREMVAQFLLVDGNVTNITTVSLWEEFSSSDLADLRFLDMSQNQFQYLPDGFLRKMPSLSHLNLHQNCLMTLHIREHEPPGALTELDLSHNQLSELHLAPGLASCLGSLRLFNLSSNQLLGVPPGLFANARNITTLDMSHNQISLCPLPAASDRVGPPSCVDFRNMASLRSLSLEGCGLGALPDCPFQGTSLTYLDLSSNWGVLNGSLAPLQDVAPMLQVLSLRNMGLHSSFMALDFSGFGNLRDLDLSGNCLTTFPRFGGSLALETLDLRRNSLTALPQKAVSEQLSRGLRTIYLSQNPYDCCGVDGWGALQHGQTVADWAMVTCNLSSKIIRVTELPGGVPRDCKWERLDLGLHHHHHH
# Description: as §1
# [3] = target: T1, human GARP-proTGFβ1 complex; test: MSD-SET, hIgG4
# Description: (§2) MSD-SET assays were performed to measure affinities of the antibodies at equilibrium. Briefly, each test antibody was diluted 3-5 fold and samples were mixed with biotinylated antigen in a 48-well dish. The SET samples were equilibrated for 20-24 hours at room temperature. Meanwhile, a capture plate was coated with IgG (20 nM) and incubated overnight at 4° C. or 30 minutes at room temperature, followed by a blocking step with 5% BSA. After the capture plate was washed three times, SET samples were added and incubated for 150 seconds. The plate was washed once to remove unbound complexes. 250 ng/ml SA-Sulfotag was added then washed 3 times. 2× Read Buffer was added, and signals from the labeled bound complexes were read with the use of QuickPlex™ SQ 120 instrument.
# [4] = target: T2, human LRRC33-proTGFβ1 complex; test: MSD-SET, hIgG4
# Description: as §2
# [5] = target: hLTBP1-proTGFβ1 as produced in the cell-based activation assay (human, UniProt P01137 30-390; Q14766 347-1721); test: cell-based or functional assay
# [6] = target: hLTBP3-proTGFβ1 as produced in the cell-based activation assay (human, UniProt P01137 30-390; Q9NS15 44-1303); test: cell-based or functional assay
# Chain of hLTBP3-proTGFβ1 as produced in the cell-based activation assay (P01137 30-390 limits assumed, chain 1 of 2): as the sequence (P01137 30-390, chain 1 of 2) above
# Chain of hLTBP3-proTGFβ1 as produced in the cell-based activation assay (Q9NS15 44-1303 limits assumed, chain 2 of 2): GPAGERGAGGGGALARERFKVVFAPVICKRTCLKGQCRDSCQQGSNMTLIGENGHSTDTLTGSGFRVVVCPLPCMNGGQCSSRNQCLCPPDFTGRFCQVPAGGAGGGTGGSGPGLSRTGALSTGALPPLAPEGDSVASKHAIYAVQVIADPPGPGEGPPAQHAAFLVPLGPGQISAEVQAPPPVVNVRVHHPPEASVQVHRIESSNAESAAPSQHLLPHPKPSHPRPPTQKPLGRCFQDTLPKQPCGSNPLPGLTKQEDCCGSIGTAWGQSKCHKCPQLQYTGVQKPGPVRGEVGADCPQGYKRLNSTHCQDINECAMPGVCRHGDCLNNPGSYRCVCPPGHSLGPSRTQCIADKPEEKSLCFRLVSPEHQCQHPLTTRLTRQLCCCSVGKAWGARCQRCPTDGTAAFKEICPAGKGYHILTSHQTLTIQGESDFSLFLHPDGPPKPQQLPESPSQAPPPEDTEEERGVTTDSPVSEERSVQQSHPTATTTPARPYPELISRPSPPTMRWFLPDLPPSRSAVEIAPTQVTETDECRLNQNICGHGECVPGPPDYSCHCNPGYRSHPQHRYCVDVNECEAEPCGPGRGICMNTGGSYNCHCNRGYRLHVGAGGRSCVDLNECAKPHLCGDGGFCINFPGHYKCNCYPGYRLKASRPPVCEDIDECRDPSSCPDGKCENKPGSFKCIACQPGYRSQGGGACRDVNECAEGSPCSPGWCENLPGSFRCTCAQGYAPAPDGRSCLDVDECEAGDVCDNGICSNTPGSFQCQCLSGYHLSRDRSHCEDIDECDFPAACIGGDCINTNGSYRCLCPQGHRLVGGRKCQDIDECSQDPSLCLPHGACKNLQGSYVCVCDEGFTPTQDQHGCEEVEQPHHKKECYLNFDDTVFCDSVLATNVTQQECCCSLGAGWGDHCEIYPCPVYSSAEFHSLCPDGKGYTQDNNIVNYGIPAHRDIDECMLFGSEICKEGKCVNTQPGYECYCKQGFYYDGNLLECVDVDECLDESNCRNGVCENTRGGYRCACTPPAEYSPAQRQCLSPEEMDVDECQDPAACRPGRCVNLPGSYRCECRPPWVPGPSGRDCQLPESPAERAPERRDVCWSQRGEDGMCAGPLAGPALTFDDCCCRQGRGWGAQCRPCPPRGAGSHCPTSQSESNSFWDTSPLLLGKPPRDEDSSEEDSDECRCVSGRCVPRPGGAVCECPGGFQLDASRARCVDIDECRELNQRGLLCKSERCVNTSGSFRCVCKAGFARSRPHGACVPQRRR
# [7] = target: hGARP-proTGFβ1 presented on cells (human, UniProt P01137 30-390; Q14392 20-662); test: cell-based or functional assay
# Chain of hGARP-proTGFβ1 presented on cells (P01137 30-390 limits assumed, chain 1 of 2): as the sequence (P01137 30-390, chain 1 of 2) above
# Chain of hGARP-proTGFβ1 presented on cells (Q14392 20-662 limits assumed, chain 2 of 2): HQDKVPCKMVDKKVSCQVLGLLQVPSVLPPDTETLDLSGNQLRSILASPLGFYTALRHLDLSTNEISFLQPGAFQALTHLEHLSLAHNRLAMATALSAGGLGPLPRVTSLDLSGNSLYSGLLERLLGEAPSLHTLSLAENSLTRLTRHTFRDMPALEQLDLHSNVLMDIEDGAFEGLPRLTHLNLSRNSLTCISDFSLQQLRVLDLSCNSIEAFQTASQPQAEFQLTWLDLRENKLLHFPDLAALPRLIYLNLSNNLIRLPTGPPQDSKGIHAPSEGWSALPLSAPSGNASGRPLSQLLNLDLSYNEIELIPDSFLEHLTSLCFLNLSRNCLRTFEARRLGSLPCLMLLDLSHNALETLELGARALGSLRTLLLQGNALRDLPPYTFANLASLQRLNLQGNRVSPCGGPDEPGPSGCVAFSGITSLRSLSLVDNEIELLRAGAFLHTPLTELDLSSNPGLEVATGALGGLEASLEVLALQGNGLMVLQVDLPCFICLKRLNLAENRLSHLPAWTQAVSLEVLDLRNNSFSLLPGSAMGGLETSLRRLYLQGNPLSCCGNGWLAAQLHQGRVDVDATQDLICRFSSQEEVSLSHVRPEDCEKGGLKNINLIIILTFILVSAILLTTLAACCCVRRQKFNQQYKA
# [8] = target: hLRRC33-proTGFβ1 presented on cells (human, UniProt P01137 30-390; Q86YC3 19-692); test: cell-based or functional assay
# Chain of hLRRC33-proTGFβ1 presented on cells (P01137 30-390 limits assumed, chain 1 of 2): as the sequence (P01137 30-390, chain 1 of 2) above
# Chain of hLRRC33-proTGFβ1 presented on cells (Q86YC3 19-692 limits assumed, chain 2 of 2): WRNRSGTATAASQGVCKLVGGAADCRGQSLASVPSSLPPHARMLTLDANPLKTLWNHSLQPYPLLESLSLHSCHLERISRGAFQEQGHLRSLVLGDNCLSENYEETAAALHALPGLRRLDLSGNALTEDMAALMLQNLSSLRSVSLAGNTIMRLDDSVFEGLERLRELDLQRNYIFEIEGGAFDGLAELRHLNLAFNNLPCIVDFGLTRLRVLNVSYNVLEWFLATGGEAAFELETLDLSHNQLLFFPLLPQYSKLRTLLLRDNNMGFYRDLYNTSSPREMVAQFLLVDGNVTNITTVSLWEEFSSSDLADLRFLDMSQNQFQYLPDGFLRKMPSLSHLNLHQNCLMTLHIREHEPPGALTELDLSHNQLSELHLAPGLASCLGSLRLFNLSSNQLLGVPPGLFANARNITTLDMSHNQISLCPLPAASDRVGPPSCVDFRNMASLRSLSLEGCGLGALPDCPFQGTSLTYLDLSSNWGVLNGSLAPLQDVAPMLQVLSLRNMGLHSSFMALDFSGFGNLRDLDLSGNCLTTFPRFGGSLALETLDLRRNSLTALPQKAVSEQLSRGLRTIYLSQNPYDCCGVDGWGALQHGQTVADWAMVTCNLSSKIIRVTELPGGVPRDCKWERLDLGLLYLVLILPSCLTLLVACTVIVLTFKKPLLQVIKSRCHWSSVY
# [9] = target: T1, human GARP-proTGFβ1 complex; test: MSD-SET
# Description: as §2
# (§3) As an example, MSD standard plates (MSD) were coated with a 20 nM solution of monoclonal antibody in PBS for 30 min at room temperature or overnight at 4° C. […] After 20-24 hours of equilibration, the antibody-coated plate was blocked with Blocking Buffer A (MSD) for 30 minutes at room temperature and washed with wash buffer (PBS, 0.1% BSA, 0.05% Tween-20) before adding the equilibrated antibody-antigen complexes to the plate for exactly 2.5 minutes. The plate was washed again with wash buffer before adding 250 ng/ml SULFO-TAG-labeled streptavidin secondary reagent (MSD) in PBS with 0.1% BSA. After washing with wash buffer, plates were read in MSD read buffer (MSD) using the MESO QuickPlex SQ 120 (MSD). The binding data were processed by nonlinear curve fitting in Prism 7 software (Graphpad) to calculate equilibrium binding KD values.
# [10] = target: T2, human LRRC33-proTGFβ1 complex; test: MSD-SET
# Description: as §2, §3
# [11] = target: T3, murine LTBP1-proTGFβ1 complex (mouse, UniProt P04202 30-390; Q8CG19 339-1712, limits assumed); test: MSD-SET
# T3 construct: also called mLTBP1-proTGFβ1
# Description: as §2, §3
# [12] = target: T4, murine GARP-proTGFβ1 complex (mouse, UniProt P04202 30-390; G3XA59 18-628); test: MSD-SET
# T4 construct: Soluble murine complex; also called mGARP-proTGFβ1
# Description: as §2, §3
# [13] = target: T1, human GARP-proTGFβ1 complex; test: MSD-SET; remark: listed apart in the source
# Description: as §3
# [14] = target: T2, human LRRC33-proTGFβ1 complex; test: MSD-SET; remark: listed apart in the source
# Description: as §3
# [15] = target: T3, murine LTBP1-proTGFβ1 complex; test: MSD-SET; remark: listed apart in the source
# Description: as §3
# [16] = target: T4, murine GARP-proTGFβ1 complex; test: MSD-SET; remark: listed apart in the source
# Description: as §3
# [17] = target: rat LTBP1-proTGFβ1 complex (rat, UniProt P17246 30-390; Q00918 339-1712); test: MSD-SET
# Description: as §3
# [18] = target: rat LRRC33-proTGFβ1 complex (rat, UniProt P17246 30-390; Q5BK65 25-650); test: MSD-SET
# Description: as §3
# [19] = target: T4, murine GARP-proTGFβ1 complex; test: BLI screen of library antibodies
Binder,Kd [1],Kd [2],Kd [3],Kd [4],"IC50, reporter cell assay [5]","IC50, reporter cell assay [6]","IC50, reporter cell assay [7]","IC50, reporter cell assay [8]",Kd [9],Kd [10],Kd [11],Kd [12],Kd [13],Kd [14],Kd [15],Kd [16],Kd [17],Kd [18],binding result [19]
B1,0.884 nM,0.545 nM,1.1 nM,1.6 nM,1.85 nM,1.18 nM,0.387 nM,1.35 nM,–,–,–,–,–,–,–,–,–,–,–
B2,0.778 nM,0.508 nM,1.4 nM,3.2 nM,3.39 nM,0.867 nM,0.776 nM,1.38 nM,–,–,–,–,–,–,–,–,–,–,–
B3,7.37 nM,0.545 nM,1.1 nM,1.1 nM,6.25 nM,2.71 nM,3.71 nM,5.37 nM,–,–,–,–,–,–,–,–,–,–,–
B4,0.404 nM,0.336 nM,0.027 nM,0.063 nM,2.74 nM,0.821 nM,0.324 nM,0.495 nM,0.027 nM,0.063 nM,0.024 nM,0.021 nM,0.027 nM,0.063 nM,0.024 nM,0.021 nM,0.035 nM,0.086 nM,–
B5,–,–,2.5 nM,2.1 nM,5.22 nM,5.65 nM,0.822 nM,3.5 nM,–,–,–,–,–,–,–,–,–,–,binds
